Reference: patent publication US20060269550A1 (published 2006)
Numbering of substitutions follows the chain as printed. Where no end group is shown, it is not given here. The star is where a group is joined. Octanoyl = CCCCCCCC(=O)*

T1: rat ghrelin (full length, acylated) (rat, UniProt Q9QYH7 24-51, acylated (group and position not restated for the rat peptide))
T1 construct: mature; the assay used the full-length ghrelin peptide
T1 peptide (looked up): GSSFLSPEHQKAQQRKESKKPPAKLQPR

B1: anti-hGhrelin Fab 2891 (Fab, V domains shown)
VH: EIQLQQSGAELMKPGASVKLSCKATGYTFTGYWIEWVKQRPGHGLEWIGEILPGSGSTNYNEKFKGKATFTADTSSNTANMQLSSLTTEDSAIYYCARYPQFRLRRERIAYWGQGTLVTVSV
VL: DLVLTQSPASLAVSLGQRATISCRASKSVSTSGYSYMHWYQQKPGQPPKLLIYLASNLESGVPARFSGSGSGTDFTLNIHPVEEEDAATYYCQHSRELPYTFGAGTKLELKR
notes: Mouse Fab, kappa light chain
B2: anti-hGhrelin Fab 1111 (Fab, V domains shown)
VH: B1 VH with T28I
VL: B1 VL
notes: Mouse Fab from an Omniclonal library (immunised C57Bl/6 mice); kappa light chain (detected or captured with goat anti-mouse kappa)
B3: anti-hGhrelin Fab 2211 (Fab, V domains shown)
VH: B1 VH with K13R, R103G
VL: B1 VL
notes: Mouse Fab, kappa light chain
B4: anti-hGhrelin Fab 2291 (Fab, V domains shown)
VH: B1 VH with V37A
VL: B1 VL with S60P
notes: Mouse Fab, kappa light chain
B5: Ghrelin (1-8), the first eight amino acids of human ghrelin acylated, via an ester linkage, with an octanoyl group on the serine at position 3 (peptide)
peptide: GSS(Octanoyl)FLSPE
notes: also called human ghrelin amino acids 1-8 acylated with octanoic acid

What was measured:
[1] = target: T2, full-length human ghrelin acylated with an octanoyl group on the serine at position 3 (human, n-octanoyl group on Ser 3); experiment: SPR, BIAcore 2000, 25 C; Fab captured by goat anti-mouse kappa, ghrelin as analyte; koff/kon, average of three
T2 construct: also called hGhrelin; acylated hGhrelin
T2 sequence (peptide, as listed by the source): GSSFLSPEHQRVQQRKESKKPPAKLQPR
Experimental: (§1) The BIAcore® utilizes the optical properties of surface plasmon resonance to detect alterations in protein concentration of interacting molecules within a dextran biosensor matrix. Except where noted, all reagents and materials were purchased from BIAcore® AB (Upsala, Sweden). All measurements were performed at 25° C. Samples containing rat or human ghrelin (full length, acylated) were dissolved in HBS-EP buffer (150 mM sodium chloride, 3 mM EDTA, 0.005% (w/v) surfactant P-20, and 10 mM HEPES, pH 7.4). A capture antibody, goat anti-mouse Kappa (Southern Biotechnology, Inc), was immobilized onto flow cells using amine-coupling chemistry. Flow cells (1-4) were activated for 7 minutes with a 1:1 mixture of 0.1 M N-hydroxysuccinimide and 0.1 M 3-(N,N-dimethylamino)propyl-N-ethylcarbodiimide at a flow rate of 10 μl/min. Goat anti-mouse Kappa (30 μg/mL in 10 mM sodium acetate, pH 4.5) was manually injected over all 4 flow cells at a flow rate of 10 μL/min. The surface density was monitored and additional goat anti-mouse Kappa was injected if needed to individual cell until all flow cells reach a surface density of 4500-5000 response units (RU). Surfaces were blocked with a 7 minute injection of 1 M ethanolamine-HCl, pH 8.5(10 μL/min). To ensure complete removal of any noncovalently bound goat anti-mouse Kappa, 15 μL of 10 mM glycine, pH 1.5 was injected twice. Running buffer used for kinetic experiments contained 10 mM HEPES, pH 7.4, 150 mM NaCl, 0.005% P20.
(§2) Collection of kinetic binding data was performed at maximum flow rate (100 μL/min) and a low surface density to minimize mass transport effects.

[2] = target: T2, full-length human ghrelin acylated with …; experiment: cell-based or functional assay
[3] = target: T1, rat ghrelin (full length, acylated); experiment: SPR, BIAcore 2000, 25 C; Fab captured by goat anti-mouse kappa, rat ghrelin as analyte; koff/kon, average of three
Experimental: as §1, §2

[4] = target: B5; experiment: inferred by the filing from inhibition of the analog in the FLPR calcium assay
anti-hGhrelin Fab 2291 [5] = target: B4; experiment: competitive ELISA; competitor at 0.2 µg/ml preincubated with Fab 2291 0.1 µg/ml, OD of Fab bound to BSA-hGhrelin wells
Experimental: (§3) Each well of a 96-well plate was coated with 60 μl BSA-hGhrelin antigen (i.e., BSA conjugated, full-length, acylated human ghrelin, 2 μg/ml in carbonate buffer, pH 9.6). The plate was incubated at 4° C. overnight. The wells were aspirated and washed twice with washing buffer (20 mM Tris-Cl, pH 7.4, 0.15 M NaCl, 0. 1% Tween 20). Compounds (i.e., human ghrelin or ghrelin analogs) were diluted into antibody solution. The antibody solution was mouse-anti-human ghrelin Fab. The ghrelin competitor concentration was varied as listed in Tables 2 and 3 below, but the Fab-concentration was kept constant at 0.1 μg/ml in blocking solution (10 mg/ml BSA in wash buffer). After a 1 hour incubation at room temperature, 50 μl of compound-antibody solution was added to BSA-hGhrelin coated wells in triplicate. The plates were incubated for 1 hour at room temperature. The wells were then washed three times with washing buffer.
(§4) Peroxidase-conjugated secondary antibody (50 μl goat anti-mouse kappa HRP (Southern Biotech), diluted 1:2000 in blocking buffer) was added to each well and incubated for 1 hour at room temperature. The wells were then washed 4 times with washing buffer. Fifty microliters of chromogenic substrate (i.e., OPD substrate) was added to each well and allowed to develop at room temperature for 10 minutes. […] The absorbance of the wells was read at 490 nm. […]

anti-hGhrelin Fab 2291 [6] = target: B4; experiment: competitive ELISA; competitor at 1 µg/ml preincubated with Fab 2291 0.1 µg/ml, OD of Fab bound to BSA-hGhrelin wells
Experimental: as §3, §4

anti-hGhrelin Fab 2291 [7] = target: B4; experiment: competitive ELISA; competitor at 5 µg/ml preincubated with Fab 2291 0.1 µg/ml, OD of Fab bound to BSA-hGhrelin wells
Experimental: as §3, §4

Binder	Kd [1] [nM]	IC50 (nM), FLPR calcium assay on AV12 cells expressing human GHS-R1a [2] [nM]	Kd [3] [nM]	binding result [4]	Ave. OD (anti-hGhrelin Fab 2291 [5]) [OD]	Ave. OD (anti-hGhrelin Fab 2291 [6]) [OD]	Ave. OD (anti-hGhrelin Fab 2291 [7]) [OD]
B1	1.01	0.9	1.16	binds	–	–	–
B2	1.04	1.1	1.14	binds	–	–	–
B3	3.38	1.9	5.42	binds	–	–	–
B4	1.08	0.8	1.68	binds	–	–	–
B5	–	–	–	–	0.399	0.127	0.065
